Consider 94 variants from the supplement of paper PMC10567573.

First the molecules themselves.
B1: TRAF3IP2 (parent)
chain: YGHDYPRAAYQQVIQPALPGQPLP
B2: INTS3 (parent)
chain: AQLQALRQKEVDFCISLLRERFME
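Also: lentivirally expressed fusions sorted by FACS into six bins by GFP to DsRed ratio, PSI derived from sequencing read proportions per bin multiplied by bin number.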

Variants of B1 are the subject of the first series. The series can be described thus: protein stability index of a GFP-peptide fusion (GPS, HEK-293T) (PSI 1-6); higher = more stable. The note with it: c terminus: a fixed tail appended.
Turning to YGHDYPKAAYQQVIQPALPGQPLP [R7K], the protein stability index was found to be 2.18.
On to YGHDYNRAAYQQVIQPALPGQPLP [P6N], for which the protein stability index turned out to be 2.55.
Turning to YGHDYKRAAYQQVIQPALPGQPLP [P6K], the protein stability index turned out to be 2.9.
In the case of YGHDYDRAAYQQVIQPALPGQPLP [P6D], the protein stability index came out at 3.52.
Same read-out and setting: the figure for YGHDYCRAAYQQVIQPALPGQPLP [P6C] is 2.26.
Consider YGHDYRRAAYQQVIQPALPGQPLP [P6R], for which the protein stability index is 1.99.
On to YGHDYERAAYQQVIQPALPGQPLP [P6E], for which the protein stability index came out at 2.82.
With YGHDYVRAAYQQVIQPALPGQPLP [P6V], the protein stability index turned out to be 1.56.
Turning to YGHDYWRAAYQQVIQPALPGQPLP [P6W], the protein stability index was 1.48.
Regarding YGHDYIRAAYQQVIQPALPGQPLP [P6I], the protein stability index came out at 1.69.
For YGHDYTRAAYQQVIQPALPGQPLP [P6T], the protein stability index was found to be 2.73.
YGHDYHRAAYQQVIQPALPGQPLP [P6H]: the protein stability index was determined as 1.93.
Consider YGHDYQRAAYQQVIQPALPGQPLP [P6Q], for which the protein stability index was determined as 2.27.
For the variant YGHDYLRAAYQQVIQPALPGQPLP [P6L], the protein stability index worked out at 1.73.
With YGHDYGRAAYQQVIQPALPGQPLP [P6G], the protein stability index is 3.41.
YGHDYFRAAYQQVIQPALPGQPLP [P6F]: the protein stability index is 1.81.
Regarding YGHDYSRAAYQQVIQPALPGQPLP [P6S], the protein stability index turned out to be 2.6.
With YGHDYMRAAYQQVIQPALPGQPLP [P6M], the protein stability index is 1.79.
On the same count and under the same terms, in the case of YGHDYARAAYQQVIQPALPGQPLP [P6A] it was 2.44; in that of YGHDYYRAAYQQVIQPALPGQPLP [P6Y], 2.96; in that of YGHGYPRAAYQQVIQPALPGQPLP [D4G], 2.05.
For YGHMYPRAAYQQVIQPALPGQPLP [D4M], the protein stability index turned out to be 1.66.
Same read-out and setting: in the case of YGHSYPRAAYQQVIQPALPGQPLP [D4S] it was 2.07.
Take YGHFYPRAAYQQVIQPALPGQPLP [D4F]: the protein stability index came out at 1.56.
With YGHPYPRAAYQQVIQPALPGQPLP [D4P], the protein stability index came out at 3.33.
Still for that read-out and setting: in the case of YGHIYPRAAYQQVIQPALPGQPLP [D4I] it was 2.1.
The same measure, in the same setting: the figure for YGHEYPRAAYQQVIQPALPGQPLP [D4E] is 1.81.
In the case of YGHYYPRAAYQQVIQPALPGQPLP [D4Y], the protein stability index is 2.9.
Take YGHCYPRAAYQQVIQPALPGQPLP [D4C]: the protein stability index worked out at 1.8.
On to YGHVYPRAAYQQVIQPALPGQPLP [D4V], for which the protein stability index is 2.36.
For YGHHYPRAAYQQVIQPALPGQPLP [D4H], the protein stability index worked out at 1.94.
Consider YGHNYPRAAYQQVIQPALPGQPLP [D4N], for which the protein stability index came out at 2.42.
As for YGHQYPRAAYQQVIQPALPGQPLP [D4Q], the protein stability index stood at 1.85.
In the case of YGHAYPRAAYQQVIQPALPGQPLP [D4A], the protein stability index worked out at 1.55.
Take YGHLYPRAAYQQVIQPALPGQPLP [D4L]: the protein stability index was found to be 1.73.
On to YGHKYPRAAYQQVIQPALPGQPLP [D4K], for which the protein stability index turned out to be 2.7.
For YGHRYPRAAYQQVIQPALPGQPLP [D4R], the protein stability index is 2.21.
For YGHTYPRAAYQQVIQPALPGQPLP [D4T], the protein stability index came to 2.13.
The same measure, in the same setting: in the case of YGHWYPRAAYQQVIQPALPGQPLP [D4W] it was 2.08; in that of YHHDYPRAAYQQVIQPALPGQPLP [G2H], 2.46.
Still for that read-out and setting: in the case of YMHDYPRAAYQQVIQPALPGQPLP [G2M] it was 2.15.
Take YWHDYPRAAYQQVIQPALPGQPLP [G2W]: the protein stability index is 2.03.
On to YRHDYPRAAYQQVIQPALPGQPLP [G2R], for which the protein stability index is 3.52.
YVHDYPRAAYQQVIQPALPGQPLP [G2V]: the protein stability index amounted to 1.83.
As to YKHDYPRAAYQQVIQPALPGQPLP [G2K], the protein stability index turned out to be 3.69.
Still for that read-out and setting: in the case of YPHDYPRAAYQQVIQPALPGQPLP [G2P] it was 3.42.
As to YSHDYPRAAYQQVIQPALPGQPLP [G2S], the protein stability index is 2.56.
With YDHDYPRAAYQQVIQPALPGQPLP [G2D], the protein stability index is 3.43.
As to YEHDYPRAAYQQVIQPALPGQPLP [G2E], the protein stability index was 3.78.
As to YTHDYPRAAYQQVIQPALPGQPLP [G2T], the protein stability index was 2.27.
On to YLHDYPRAAYQQVIQPALPGQPLP [G2L], for which the protein stability index came out at 2.6.
YYHDYPRAAYQQVIQPALPGQPLP [G2Y]: the protein stability index amounted to 2.38.
The same measure, in the same setting: in the case of YNHDYPRAAYQQVIQPALPGQPLP [G2N] it was 2.46.
Consider YFHDYPRAAYQQVIQPALPGQPLP [G2F], for which the protein stability index came out at 3.36.
For YIHDYPRAAYQQVIQPALPGQPLP [G2I], the protein stability index came to 1.97.
With YCHDYPRAAYQQVIQPALPGQPLP [G2C], the protein stability index worked out at 1.67.
On to YQHDYPRAAYQQVIQPALPGQPLP [G2Q], for which the protein stability index turned out to be 2.62.
Take YAHDYPRAAYQQVIQPALPGQPLP [G2A]: the protein stability index worked out at 2.41.
Still for that read-out and setting: the figure for MGHDYPRAAYQQVIQPALPGQPLP [Y1M] is 3.31; for GGHDYPRAAYQQVIQPALPGQPLP [Y1G] it is 3.63; for PGHDYPRAAYQQVIQPALPGQPLP [Y1P] it is 4.1.
On to QGHDYPRAAYQQVIQPALPGQPLP [Y1Q], for which the protein stability index came out at 3.73.
Turning to NGHDYPRAAYQQVIQPALPGQPLP [Y1N], the protein stability index is 4.21.
As for FGHDYPRAAYQQVIQPALPGQPLP [Y1F], the protein stability index worked out at 2.12.
For the variant TGHDYPRAAYQQVIQPALPGQPLP [Y1T], the protein stability index amounted to 3.54.
Same read-out and setting: the figure for IGHDYPRAAYQQVIQPALPGQPLP [Y1I] is 3.52; for VGHDYPRAAYQQVIQPALPGQPLP [Y1V] it is 4.01.
Turning to EGHDYPRAAYQQVIQPALPGQPLP [Y1E], the protein stability index came out at 4.63.
Regarding SGHDYPRAAYQQVIQPALPGQPLP [Y1S], the protein stability index was found to be 3.75.
Regarding LGHDYPRAAYQQVIQPALPGQPLP [Y1L], the protein stability index came out at 3.95.
Turning to WGHDYPRAAYQQVIQPALPGQPLP [Y1W], the protein stability index worked out at 2.68.
Same read-out and setting: in the case of DGHDYPRAAYQQVIQPALPGQPLP [Y1D] it was 4.19; in that of AGHDYPRAAYQQVIQPALPGQPLP [Y1A], 3.77.
For the variant HGHDYPRAAYQQVIQPALPGQPLP [Y1H], the protein stability index came out at 4.03.
The same measure, in the same setting: in the case of RGHDYPRAAYQQVIQPALPGQPLP [Y1R] it was 3.71; in that of CGHDYPRAAYQQVIQPALPGQPLP [Y1C], 2.52.
The same measure, in the same setting: the figure for KGHDYPRAAYQQVIQPALPGQPLP [Y1K] is 3.79; for YGHDYPRAAEQQVIQPALPGQPLP [Y10E] it is 2.17; for YGHDYPRAAGQQVIQPALPGQPLP [Y10G] it is 1.91.
With YGHDYPRAAFQQVIQPALPGQPLP [Y10F], the protein stability index was 2.33.
On to YGHDYPRAACQQVIQPALPGQPLP [Y10C], for which the protein stability index was 2.39.
Regarding YGHDYPRAAHQQVIQPALPGQPLP [Y10H], the protein stability index is 2.52.
Turning to YGHDYPRAADQQVIQPALPGQPLP [Y10D], the protein stability index amounted to 1.97.
YGHDYPRAAAQQVIQPALPGQPLP [Y10A]: the protein stability index amounted to 1.79.

The next series covers variants of B2. The description is as above. As to conditions: c terminus: a fixed tail appended.
Turning to AQLQALRQKEVDFCISLLRERFMM [E24M], the protein stability index was 4.47.
For AQLQALRQKEVDFCISLLRERFMQ [E24Q], the protein stability index is 1.4.
For the variant AQLQALRQKFVDFCISLLRERFME [E10F], the protein stability index was 2.15.
As for AQLQRLRQKEVDFCISLLRERFME [A5R], the protein stability index is 2.15.
With AQLQALRQKEVDFCISLLRERFLE [M23L], the protein stability index was found to be 2.29.
As to AQPQALRQKEVDFCISLLRERFME [L3P], the protein stability index came out at 1.62.
On to AQLQALRQKEVDFCDSLLRERFME [I15D], for which the protein stability index was 2.54.
In the case of AQLQALRQKEVDFCASLLRERFME [I15A], the protein stability index came out at 1.62.
Regarding AQLQALRQKEVDFCISLMRERFME [L18M], the protein stability index was 3.87.
Still for that read-out and setting: the figure for AQLQALRQKEVDFCILLLRERFME [S16L] is 1.85.
